The chains are these.
B1: Bicycle Compound Number 130 (TBMB scaffold) (peptide)
peptide: [Sar][Sar]ACP[1Nal]GPFWCP[Tle]N[hArg]PGC
modifications: linker 4-11-18 via TBMB
notes: also called Compound 130; Sar2-ACP(1Nal)GPFWCP(tBuGly)N(HArg)PGC
B2: Bicycle Compound Number 118 (TBMB scaffold) (peptide)
peptide: [Sar][Sar]ACPWGPF[1Nal]CPVNRP[dA]C
modifications: linker 4-11-18 via TBMB
notes: also called Sar2-ACPWGPF(1Nal)CPVNRP(D-Ala)C
B3: Bicycle Compound Number 124 (TBMB scaffold) (peptide)
peptide: [Sar][Sar]AC[Aib][1Nal]GPFWCPV[dA]RPGC
modifications: linker 4-11-18 via TBMB
notes: also called Sar2-AC(Aib)(1Nal)GPFWCPV(D-Ala)RPGC

The values below come from US11814447B2, “Peptide ligands for binding to EphA2” (BICYCLERD LIMITED, priority 2018, dated 2023).

Broadly, the Ki is a measure of affinity in units of concentration, obtained from inhibition or displacement. High values mean lower affinity, low ones higher affinity.

Starred links: 1 amine or outer side, 2 acyl side, 3 side chain; linkers in the order of their positions; H or OH if unused. Positions of bridges follow the written chain, without caps; N, C: chain ends. Non-standard residues stand in square brackets, D forms with d. Primed or numbered codes have the meaning given here. No end group written: not given here. TBMB′ = 1,3,5-tris(bromomethyl)benzene, 1,3,5-tris(methylene)benzene core, three thioethers to Cys; 4FlPro = 4-fluoropyrrolidine-2-carboxylic acid (4-fluoroproline); Phe(3,4-Cl2) = N[C@@H](Cc1ccc(Cl)c(Cl)c1)C(=O)O; Bip = N[C@@H](Cc1ccc(-c2ccccc2)cc1)C(=O)O; 1Nal = N[C@@H](Cc1cccc2ccccc12)C(=O)O; 2Nal = N[C@@H](Cc1ccc2ccccc2c1)C(=O)O; TBMB = c1c(C[*:1])cc(C[*:3])cc1C[*:2]; Hyp = O=C(O)[C@@H]1C[C@@H](O)CN1; hArg = N=C(N)NCCCC[C@H](N)C(=O)O; hPhe = N[C@@H](CCc1ccccc1)C(=O)O; 3Pal = N[C@@H](Cc1cccnc1)C(=O)O; Phg = N[C@H](C(=O)O)c1ccccc1; Tle = CC(C)(C)[C@H](N)C(=O)O; Pip = O=C(O)[C@@H]1CCCCN1; Aze = O=C(O)[C@@H]1CCN1; Aib = CC(C)(N)C(=O)O; Sar = CNCC(=O)O

The target of one assay is T1, Human EphA2 (Ecto), C-terminal polyHis (Human, UniProt P29317 24-537).
T1 construct: extracellular domain; also called EPH receptor A2; ephrin type-A receptor 2
T1 sequence (P29317 24-537): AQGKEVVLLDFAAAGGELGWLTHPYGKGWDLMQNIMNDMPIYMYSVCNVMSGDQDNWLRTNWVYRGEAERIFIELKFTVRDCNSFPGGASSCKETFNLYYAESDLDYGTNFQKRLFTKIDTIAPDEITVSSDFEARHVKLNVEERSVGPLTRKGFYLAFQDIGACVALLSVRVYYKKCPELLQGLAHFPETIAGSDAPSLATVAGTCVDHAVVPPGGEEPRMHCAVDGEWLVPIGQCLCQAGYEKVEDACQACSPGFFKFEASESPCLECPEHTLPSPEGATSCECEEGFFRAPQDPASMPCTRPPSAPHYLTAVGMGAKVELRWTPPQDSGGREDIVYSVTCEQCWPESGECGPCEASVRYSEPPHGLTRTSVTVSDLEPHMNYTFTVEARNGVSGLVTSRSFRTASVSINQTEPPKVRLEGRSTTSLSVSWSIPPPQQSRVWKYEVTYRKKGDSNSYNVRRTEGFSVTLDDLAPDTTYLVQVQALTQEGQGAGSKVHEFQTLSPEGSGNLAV
Nature of the assay: fluorescence polarisation competition; competitor fluorescent Compound 18. The procedure: (§1) Peptides without a fluorescent tag were tested in competition with a peptide with a fluorescent tag and a known Kd (Table 2). Peptides were diluted to an appropriate concentration in assay buffer as described in the direct binding assay with a maximum of 5% DMSO, then serially diluted 1 in 2. […] Measurements were conducted as for the direct binding assay, however the gain was determined prior to the first measurement. Data analysis was in Systat Sigmaplot version 12.0 where the mP values were fit to a user defined cubic equation to generate a Ki value: […]
In general terms: In fluorescence polarisation assays a small probe gives low polarisation when free and higher when bound to something large.
On to [Sar][Sar]ACP[1Nal]G[Aib]FWCP[Tle]N[hArg]PGC (linker 4-11-18 via TBMB) [Bicycle Compound Number 136 (TBMB scaffold)], for which the Ki is 23 nM.
For the molecule B1, the Ki came out at 0.29 nM. This Ki lies about 79-fold lower than the previous one.
On the same count and under the same terms, the figure for [Sar][Sar]ACPWG[Aib]FWCPVNRPGC (linker 4-11-18 via TBMB′, also called Compound 80) [Bicycle Compound Number 80 (TBMB scaffold)] is 120 nM; for [Sar][Sar]ACP[1Nal]GPFWCP[Tle]N[hArg][Aib]GC (linker 4-11-18 via TBMB) [Bicycle Compound Number 138 (TBMB scaffold)] it is 5.1 nM; for [Sar][Sar]AC[Aib][1Nal]G[Aib]FWCPVNR[Aib]GC (linker 4-11-18 via TBMB) [Bicycle Compound Number 135 (TBMB scaffold)] it is 43 nM.
In the case of B2, the inhibition constant (Ki) stood at 37 nM.
[Sar][Sar]ACPWGP[hPhe]WCPVNRPGC (linker 4-11-18 via TBMB′, also called Compound 87) [Bicycle Compound Number 87 (TBMB scaffold)] came in with a Ki of 162 nM. This Ki is about 4.4-fold higher than that of the molecule before.
Consider B3, for which the Ki is 26 nM.
AHDVPCPWGPFWCPVNRPGCA (linker 6-13-20 via TBMB (inferred), also called Compound 59) [Bicycle Compound Number 59 (TBMB scaffold)]: the Ki stood at 0.54 nM.
Same read-out and setting: under ACPWGPFWCPVNRPGCA (linker 2-9-16 via TBMB, also called Compound 69) [Bicycle Compound Number 69 (TBMB scaffold)] stands 107 nM; under [Sar][Sar]ACPWGPAWCPVNRPGC (linker 4-11-18 via TBMB′, also called Compound 83) [Bicycle Compound Number 83 (TBMB scaffold)], 199 nM.
[Sar][Sar]ACPWGPFWCPVNRP[dA]C (linker 4-11-18 via TBMB) [Bicycle Compound Number 112 (TBMB scaffold)] displayed a Ki of 89 nM.

The next assay has as its target T1, Human EphA2 (Ecto), C-terminal polyHis. Put plainly: fluorescence polarisation competition; competitor fluorescent Compound 66. The procedure:
as §1
For [Sar][Sar]ACP[1Nal]G[Aib]FWCPVNRPGC (linker 4-11-18 via TBMB) [Bicycle Compound Number 119 (TBMB scaffold)], the Ki is 8.4 nM. That is a single-digit nanomolar value.
The same measure, in the same setting: under ACRVSPEYCPFGPVWCAGAAA (linker 2-9-16 via TBMB, also called Compound 34) [Bicycle Compound Number 34 (TBMB scaffold)] stands 77.4 nM.
Consider [Sar][Sar]ACP[1Nal]G[Aib]FWCP[Tle]N[hArg]PGC (linker 4-11-18 via TBMB) [Bicycle Compound Number 136 (TBMB scaffold)], for which the Ki turned out to be 15 nM.
As for [Sar][Sar]ACPWGPFWCPVNR[Pip]GC (linker 4-11-18 via TBMB) [Bicycle Compound Number 108 (TBMB scaffold)], the affinity, expressed as Ki, was 374 nM. This Ki is about 25-fold higher than that of the molecule before.
The same measure, in the same setting: the figure for [Sar][Sar]ACPWGPFWC[Aze]VNRPGC (linker 4-11-18 via TBMB′, also called Compound 97) [Bicycle Compound Number 97 (TBMB scaffold)] is 286 nM.
The molecule [Sar][Sar]ACPWG[Aib]FWCPVNRPGC (linker 4-11-18 via TBMB′, also called Compound 80) [Bicycle Compound Number 80 (TBMB scaffold)] registered a Ki of 187 nM.
Still for that read-out and setting: under [Sar][Sar]ACPWGPFWCPVNR[4FlPro]GC (linker 4-11-18 via TBMB) [Bicycle Compound Number 109 (TBMB scaffold)] stands 184 nM; under [Sar][Sar]ACPWGPFWCPVNR[Aze]GC (linker 4-11-18 via TBMB) [Bicycle Compound Number 106 (TBMB scaffold)], 155 nM; under ACPWGPAWCPVRDTNCA (linker 2-9-16 via TBMB, also called Compound 42) [Bicycle Compound Number 42 (TBMB scaffold)], 316 nM.
On the same count and under the same terms, the figure for [Sar][Sar]AC[Aib][1Nal]G[Aib]FWCPVNR[Aib]GC (linker 4-11-18 via TBMB) [Bicycle Compound Number 135 (TBMB scaffold)] is 30 nM; for [Sar][Sar]ACPWGPFWC[4FlPro]VNRPGC (linker 4-11-18 via TBMB, also called Compound 99) [Bicycle Compound Number 99 (TBMB scaffold)] it is 270 nM; for [Sar][Sar]ACPWGP[2Nal]WCPVNRPGC (linker 4-11-18 via TBMB′, also called Compound 95) [Bicycle Compound Number 95 (TBMB scaffold)] it is 362 nM.
The same measure, in the same setting: under [Sar][Sar]ACPWGP[3Pal]WCPVNRPGC (linker 4-11-18 via TBMB′, also called Compound 92) [Bicycle Compound Number 92 (TBMB scaffold)] stands 165 nM; under [Sar][Sar]ACPWGP[Phe(3,4-Cl2)]WCPVNRPGC (linker 4-11-18 via TBMB′, also called Compound 90) [Bicycle Compound Number 90 (TBMB scaffold)], 361 nM; under [Sar][Sar]ACPWGPFWC[Hyp]VNRPGC (linker 4-11-18 via TBMB′, also called Compound 98) [Bicycle Compound Number 98 (TBMB scaffold)], 163 nM.
For [Sar][Sar]ACPWGP[Bip]WCPVNRPGC (linker 4-11-18 via TBMB′, also called Compound 88) [Bicycle Compound Number 88 (TBMB scaffold)], the Ki came to 183 nM.
With [Sar][Sar]AC[Aib]WGPF[1Nal]CPVNRPGC (linker 4-11-18 via TBMB) [Bicycle Compound Number 114 (TBMB scaffold)], the Ki was 43 nM.
Same read-out and setting: the figure for ARDDPCPWGPFWCPVNRPGCA (linker 6-13-20 via TBMB (inferred), also called Compound 62) [Bicycle Compound Number 62 (TBMB scaffold)] is 28 nM; for ACRVSPEYCPFGPVWCA (linker 2-9-16 via TBMB, also called Compound 33) [Bicycle Compound Number 33 (TBMB scaffold)] it is 78.5 nM; for ACRVSPEYCPFGPYWCA (linker 2-9-16 via TBMB, also called Compound 38) [Bicycle Compound Number 38 (TBMB scaffold)] it is 26.5 nM.
The same measure, in the same setting: the figure for ACRVSPEYCPFGPEWCA (linker 2-9-16 via TBMB, also called Compound 37) [Bicycle Compound Number 37 (TBMB scaffold)] is 61.2 nM.
Still for that read-out and setting: under ACRVSPEYCPFGPSWCA (linker 2-9-16 via TBMB, also called Compound 36) [Bicycle Compound Number 36 (TBMB scaffold)] stands 40.5 nM; under [Sar][Sar]ACPWGP[1Nal]WCPVNRPGC (linker 4-11-18 via TBMB′, also called Compound 94) [Bicycle Compound Number 94 (TBMB scaffold)], 196 nM; under ACPWGPFWCPVNRPGCA (linker 2-9-16 via TBMB, also called Compound 69) [Bicycle Compound Number 69 (TBMB scaffold)], 70.1 nM.
For the molecule ACMNDWLCQLGWTCA (linker 2-8-14 via TBMB, also called Compound 30) [Bicycle Compound Number 30 (TBMB scaffold)], the affinity corresponds to a Ki of 56 nM.
Turning to ACMNDWLCSLGWTCA (linker 2-8-14 via TBMB, also called Compound 24) [Bicycle Compound Number 24 (TBMB scaffold)], the affinity, expressed as Ki, was 82.3 nM.
The same measure, in the same setting: the figure for [Sar][Sar]ACPWGPAWCPVNRPGC (linker 4-11-18 via TBMB′, also called Compound 83) [Bicycle Compound Number 83 (TBMB scaffold)] is 288 nM; for [Sar][Sar]ACPWGP[Phg]WCPVNRPGC (linker 4-11-18 via TBMB′, also called Compound 93) [Bicycle Compound Number 93 (TBMB scaffold)] it is 412 nM.
